Results on 38 variants are retold here after the RNAGym collection of RNA variant scans (doi:10.7554/elife.80360).

To fix the notation:
B1: Hairpin Ribozyme (parent)
chain: GUCCUCUUUCACGUGCGCGUGAAAGAGAGAAGUGAACCAGAGAAACACACGUUGUGGUAUAUUACCUGGUA

In the data set the parent is B1. Briefly: self-cleavage, relative activity (ratio to wild type); higher = more cleavage; co-transcriptional.
For the variant GUGCUCUUUCACGUGCGCGUGAAAGAGAGAAGAGAACCAGAGAAACACACGUUGUGGUAUAUUACCUGGUA [C3G U33A], the self-cleavage worked out at 0.138.
With GUUCUCUUUCACGUGCGAGUGAAAGAGAGAAGUGAACCAGAGAAACACACGUUGUGGUAUAUUACCUGGUA [C3U C18A], the self-cleavage worked out at 0.641.
On to GUUCUCUUUCACGUGCGGGUGAAAGAGAGAAGUGAACCAGAGAAACACACGUUGUGGUAUAUUACCUGGUA [C3U C18G], for which the self-cleavage is 0.531.
In the case of GUUCUCUUUCUCGUGCGCGUGAAAGAGAGAAGUGAACCAGAGAAACACACGUUGUGGUAUAUUACCUGGUA [C3U A11U] it was 0.32; in that of GUUCUCUUUCACGUGCGCGUGAAAGAGAGAAGUGAACCAGAGAAACACACGUUGUGGUAUAUUACCUGGUA [C3U], 0.526; in that of GUGCUCUUUCACGUGCGCGUGAAAGAGACAAGUGAACCAGAGAAACACACGUUGUGGUAUAUUACCUGGUA [C3G G29C], 0.0773.
As for GUGCUCUUUCACGUGCGCGUGAAAGAGAUAAGUGAACCAGAGAAACACACGUUGUGGUAUAUUACCUGGUA [C3G G29U], the self-cleavage stood at 0.0672.
The result for GUGCUCUUUCACGUGCGCGUGAAAGAGAGAAGUGAACCAGACAAACACACGUUGUGGUAUAUUACCUGGUA [C3G G42C] reads 0.103; that for GUUCUCUUUCACGUGCGCGUGAAAGAGAGAAGUGAACCAGAGAAACACACGUUGUGGUAUAUUACUUGGUA [C3U C66U], 0.239; that for GUGCUCUUCCACGUGCGCGUGAAAGAGAGAAGUGAACCAGAGAAACACACGUUGUGGUAUAUUACCUGGUA [C3G U9C], 0.357.
Turning to GUUGUCUUUCACGUGCGCGUGAAAGAGAGAAGUGAACCAGAGAAACACACGUUGUGGUAUAUUACCUGGUA [C3U C4G], the self-cleavage was 0.235.
Regarding GUGCUCUUUCACGUGCGCGUGAAAGAGAGAAGUGAACCAGAGAAACACACGUUGUGGUAUAUAACCUGGUA [C3G U63A], the self-cleavage came out at 0.108.
For the variant GUGCUCUUUCACGUGCGCGUGAAAGAGAGAAGUGAACCAGAGAAACACACGUUGUGGUAUAUGACCUGGUA [C3G U63G], the self-cleavage was determined as 0.18.
Regarding GUGCUCUUUCACGUGCGCGUGAAACAGAGAAGUGAACCAGAGAAACACACGUUGUGGUAUAUUACCUGGUA [C3G G25C], the self-cleavage came out at 0.0885.
Take GUUCUCUUUGACGUGCGCGUGAAAGAGAGAAGUGAACCAGAGAAACACACGUUGUGGUAUAUUACCUGGUA [C3U C10G]: the self-cleavage turned out to be 0.457.
GUUCUCUUUCACGUGCGCGUGAAAGAGAGAAGUGAACCAGAGAAACACACGUUGUGGUAUAUUACCUGGUU [C3U A71U]: the self-cleavage was 0.429.
GUUCUCUUUCACGUGCGCGUGAAAGAGAGAAGUGAACCAGAGAAACACACGUUGUGGUAUAUUACCUGGUC [C3U A71C]: the self-cleavage is 0.962.
Consider GUUCUCUUUCACGUGCGCGUGAAAGAGAGAAGUGAACCAGAGAAACCCACGUUGUGGUAUAUUACCUGGUA [C3U A47C], for which the self-cleavage worked out at 0.192.
In the case of GUUCUCUUUCACGUGCGCGUGAAAGAGAGAAGUGAACCAGAGAAACUCACGUUGUGGUAUAUUACCUGGUA [C3U A47U] it was 0.208; in that of GUUCUCUUUCACGUGCGCGUGAAAGAGAGAAGUGAACCAGAGAAACGCACGUUGUGGUAUAUUACCUGGUA [C3U A47G], 0.275.
In the case of GUUCUCUUUCACGUGCGCGUGAAAGAGAGAAGUGAACCAGAGAAACACACGUUGUGGUCUAUUACCUGGUA [C3U A59C] it was 0.143; in that of GUGCUCUUUCACGUGCGCGUGAAAGAGAGAAGUGAACCAGAGAAACACACCUUGUGGUAUAUUACCUGGUA [C3G G51C], 0.238.
With GUGCUCUUUCACGUGCGCGUGAAAGAGAGAAGUGAACCAGAGAAACACACAUUGUGGUAUAUUACCUGGUA [C3G G51A], the self-cleavage came to 0.369.
GUUCUCUUUCACGUGCGCGUGAAAGAGAGAAGUGAACCAGAGAAACACAAGUUGUGGUAUAUUACCUGGUA [C3U C50A]: the self-cleavage came out at 0.174.
With GUGCUCUUUCACGUGCGCGUGAAAGAGAGAAGUGAACCAGAGAAACACACGUUGUGGUAUAUUACCAGGUA [C3G U67A], the self-cleavage came to 0.0949.
With GUGCUCUUUCACGUGCGCGUGAAAGAGAGAAGUGAACCAGAGAAACACACGUUGUGAUAUAUUACCUGGUA [C3G G57A], the self-cleavage amounted to 0.102.
Regarding GUGCUCUUUCACGUGCGCGUGAAAGAGAGAAGUGAACCAGAGAAACACACGUUGUGUUAUAUUACCUGGUA [C3G G57U], the self-cleavage was determined as 0.0635.
With GUGCUCUUUCACGUGCGCGUGAAAGAGAGAAGUGAACCAGAGAAACACACGUUGUGCUAUAUUACCUGGUA [C3G G57C], the self-cleavage was 0.0572.
The result for GUUCUCUUUCACGUGCGCGUGAAAGGGAGAAGUGAACCAGAGAAACACACGUUGUGGUAUAUUACCUGGUA [C3U A26G] reads 0.509; that for GUGCUCUUUCACGUGCGCGUGAAAGAGAGAAGUGAACCAGAGAAACACACGUUGUGGUAUAUUACCUAGUA [C3G G68A], 0.085; that for GUGCUCCUUCACGUGCGCGUGAAAGAGAGAAGUGAACCAGAGAAACACACGUUGUGGUAUAUUACCUGGUA [C3G U7C], 0.372.
On to GUUCUCUUUCACGUGCGCGUGAAAGAGAGAAGUGAACCAGAGAUACACACGUUGUGGUAUAUUACCUGGUA [C3U A44U], for which the self-cleavage is 0.0496.
For GUUCUCUUUCACGUGCGCGUGAAAGAGAGAAGUGAACCAGAGGAACACACGUUGUGGUAUAUUACCUGGUA [C3U A43G], the self-cleavage is 0.138.
Turning to GUGCUCUUUCACGUGCGCGGGAAAGAGAGAAGUGAACCAGAGAAACACACGUUGUGGUAUAUUACCUGGUA [C3G U20G], the self-cleavage worked out at 0.28.
Turning to GUUCUCUUUCACGUGCGCGUGAAAGAGAGAAGUGAAUCAGAGAAACACACGUUGUGGUAUAUUACCUGGUA [C3U C37U], the self-cleavage worked out at 0.29.
As for GUUCUCUUUCACGUGCGCGUGAAAGAGAGAAGUGAACUAGAGAAACACACGUUGUGGUAUAUUACCUGGUA [C3U C38U], the self-cleavage was 0.354.
As to GUGCUCUUUCACGUGCGCGUGAAAGAGAGAAGUGAACCAGAGAAACACACGUUCUGGUAUAUUACCUGGUA [C3G G54C], the self-cleavage came to 0.126.
Consider GUGCUCUUUCACGUGCGCGUGAAAGAGAGAAGUGAACCAGAGAAACACACGUUUUGGUAUAUUACCUGGUA [C3G G54U], for which the self-cleavage is 0.175.
